Consider 13 substances from patent US8026218.

The target of assay [1] is δ opioid receptor of the mouse isolated vas deferens (mouse) (UniProt P32300). Briefly: cell-based or functional assay.
In assay [2] the target is human δ opioid receptor (human) (UniProt P41143). Briefly: cell-based or functional assay.
Assay [3] has as its target rat µ opioid receptor (rat) (UniProt P33535). The assay can be described thus: cell-based or functional assay.
Assay [4] has the same target. Briefly: competition vs [3H]DAMGO, rMOR cell membranes.
Assay [5] deals with human δ opioid receptor (human) (UniProt P41143). The assay can be described thus: competition vs [3H]DPDPE, hDOR cell membranes.
The target in assay [6] is human NK1 receptor (human) (UniProt P25103). The assay can be described thus: competition vs [3H]Substance P, hNK1 CHO cell membranes.
Assay [7] concerns the target rat NK1 receptor (rat) (UniProt P14600). Briefly: competition vs [3H]Substance P, rNK1 CHO cell membranes.
Assay [8] addresses guinea pig NK1 receptor (guinea pig) (UniProt P30547). The assay can be described thus: cell-based or functional assay.
The target of assay [9] is µ opioid receptor of the guinea pig isolated ileum (guinea pig) (UniProt P97266). The assay can be described thus: cell-based or functional assay.
Assay [10] has as its target rat µ opioid receptor (rat) (UniProt P33535). Briefly: radioligand competition vs [3H]DAMGO, membranes of rMOR cells. In general terms: Loss of bound radioactivity is the signal in a displacement assay; it reports binding, not function.
The target of assay [11] is human δ opioid receptor (human) (UniProt P41143). Briefly: radioligand competition vs [3H]DPDPE, membranes of hDOR cells.
Assay [12] deals with human NK1 receptor (human) (UniProt P25103). Briefly: radioligand competition vs [3H]substance P, membranes of hNK1 CHO cells.
In assay [13] the target is rat NK1 receptor (rat) (UniProt P14600). Briefly: radioligand competition vs [3H]substance P, membranes of rNK1 CHO cells.
Assay [14] concerns the target rat µ opioid receptor (rat) (UniProt P33535). Briefly: cell-based or functional assay. This is another data set of the same source.
The target is the same in assay [15]. Briefly: radioligand saturation, rMOR membranes.
Assay [16] addresses human δ opioid receptor (human) (UniProt P41143). The assay can be described thus: radioligand saturation, hDOR membranes.
The target is the same in assay [17]. Briefly: radioligand saturation, hDOR cell membranes.

Read-outs that look alike come from different tables or passages of the source.

human NK1 receptor (human), sequence (P25103 whole entry): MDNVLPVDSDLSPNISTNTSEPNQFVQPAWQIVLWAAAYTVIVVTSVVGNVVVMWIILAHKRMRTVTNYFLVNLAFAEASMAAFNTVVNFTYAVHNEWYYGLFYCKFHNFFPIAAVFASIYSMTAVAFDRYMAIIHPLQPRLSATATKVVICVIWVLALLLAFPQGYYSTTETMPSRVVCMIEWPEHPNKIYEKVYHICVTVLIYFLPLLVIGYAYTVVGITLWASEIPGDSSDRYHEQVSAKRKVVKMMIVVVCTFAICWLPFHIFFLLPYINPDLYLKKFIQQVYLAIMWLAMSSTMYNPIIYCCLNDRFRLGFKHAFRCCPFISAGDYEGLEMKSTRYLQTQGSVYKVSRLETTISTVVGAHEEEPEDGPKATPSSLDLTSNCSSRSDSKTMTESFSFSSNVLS
human δ opioid receptor (human), sequence (P41143 whole entry, stated change not applied): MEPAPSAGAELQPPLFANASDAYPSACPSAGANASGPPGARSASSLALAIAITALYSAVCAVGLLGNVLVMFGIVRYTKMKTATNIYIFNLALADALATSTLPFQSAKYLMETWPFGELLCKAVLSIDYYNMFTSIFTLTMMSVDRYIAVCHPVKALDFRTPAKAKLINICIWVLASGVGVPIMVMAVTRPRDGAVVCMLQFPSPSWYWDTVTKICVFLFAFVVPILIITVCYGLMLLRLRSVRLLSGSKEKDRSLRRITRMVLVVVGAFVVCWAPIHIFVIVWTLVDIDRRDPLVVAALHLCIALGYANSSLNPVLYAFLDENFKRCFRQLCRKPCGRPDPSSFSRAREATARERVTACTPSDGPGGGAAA
rat µ opioid receptor (rat), sequence (P33535 whole entry): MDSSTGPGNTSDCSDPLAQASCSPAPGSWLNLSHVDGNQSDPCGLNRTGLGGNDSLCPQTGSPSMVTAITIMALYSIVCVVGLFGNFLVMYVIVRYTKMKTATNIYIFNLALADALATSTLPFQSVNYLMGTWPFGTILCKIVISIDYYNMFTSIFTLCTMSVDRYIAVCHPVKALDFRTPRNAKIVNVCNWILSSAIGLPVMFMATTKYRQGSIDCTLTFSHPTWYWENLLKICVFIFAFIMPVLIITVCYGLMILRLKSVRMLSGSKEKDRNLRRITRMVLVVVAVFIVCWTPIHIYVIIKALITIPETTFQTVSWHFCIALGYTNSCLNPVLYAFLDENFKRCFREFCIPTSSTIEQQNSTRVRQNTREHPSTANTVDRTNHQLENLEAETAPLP
rat NK1 receptor (rat), sequence (P14600 whole entry): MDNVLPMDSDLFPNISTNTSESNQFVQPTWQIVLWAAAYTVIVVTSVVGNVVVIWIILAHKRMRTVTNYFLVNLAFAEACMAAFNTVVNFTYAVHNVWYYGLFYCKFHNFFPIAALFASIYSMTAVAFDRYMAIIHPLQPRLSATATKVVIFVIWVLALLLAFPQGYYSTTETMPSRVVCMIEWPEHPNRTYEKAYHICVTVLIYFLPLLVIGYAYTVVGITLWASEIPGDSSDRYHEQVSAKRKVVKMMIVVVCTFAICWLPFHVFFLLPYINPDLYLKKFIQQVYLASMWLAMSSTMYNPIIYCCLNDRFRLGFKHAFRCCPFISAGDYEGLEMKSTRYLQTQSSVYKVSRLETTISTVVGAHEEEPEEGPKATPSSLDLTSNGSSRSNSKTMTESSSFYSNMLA
δ opioid receptor of the mouse isolated vas deferens (mouse), sequence (P32300 whole entry, stated change not applied): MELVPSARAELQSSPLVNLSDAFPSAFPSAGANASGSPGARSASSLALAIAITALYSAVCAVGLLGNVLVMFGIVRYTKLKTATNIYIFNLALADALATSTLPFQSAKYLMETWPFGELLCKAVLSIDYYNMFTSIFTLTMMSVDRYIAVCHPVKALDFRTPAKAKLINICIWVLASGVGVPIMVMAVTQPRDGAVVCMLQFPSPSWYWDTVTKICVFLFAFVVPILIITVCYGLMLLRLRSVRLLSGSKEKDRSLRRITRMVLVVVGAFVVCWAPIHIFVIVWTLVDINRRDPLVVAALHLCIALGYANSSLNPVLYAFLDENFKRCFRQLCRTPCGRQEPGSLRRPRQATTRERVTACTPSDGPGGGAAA
µ opioid receptor of the guinea pig isolated ileum (guinea pig), sequence (P97266 whole entry): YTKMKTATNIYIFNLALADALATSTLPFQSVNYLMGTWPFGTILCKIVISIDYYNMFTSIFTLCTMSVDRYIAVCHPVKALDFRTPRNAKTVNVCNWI
guinea pig NK1 receptor (guinea pig), sequence (P30547 whole entry): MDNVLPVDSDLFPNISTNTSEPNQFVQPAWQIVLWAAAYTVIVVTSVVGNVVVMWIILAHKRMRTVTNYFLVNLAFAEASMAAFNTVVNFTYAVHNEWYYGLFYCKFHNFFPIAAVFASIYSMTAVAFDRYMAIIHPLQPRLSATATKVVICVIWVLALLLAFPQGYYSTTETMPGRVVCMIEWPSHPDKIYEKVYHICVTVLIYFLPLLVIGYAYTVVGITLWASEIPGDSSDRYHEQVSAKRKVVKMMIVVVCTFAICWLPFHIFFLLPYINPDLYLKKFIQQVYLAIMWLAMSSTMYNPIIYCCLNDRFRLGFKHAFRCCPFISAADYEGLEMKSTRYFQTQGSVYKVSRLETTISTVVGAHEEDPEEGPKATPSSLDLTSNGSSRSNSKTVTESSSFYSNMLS

In [1], Biphalin (peptide) gave an MVD (δ) IC50 of 2.7 nM and an MVD (δ) opioid agonist IC50 of 2.7 nM.
With “DMT-D-Ala-Trp-O-3′,5′(CF3)2-Bzl (NP48) (peptide)”, in [1], the MVD δ-agonist IC50 worked out at 408 nM.
As to “DMT-D-Ala-Trp-O-3′,5′(CF3)2-Bzl (peptide)”, the GTP EC50 in [2] worked out at 11.5 nM; in [3], 1.6 nM. Further, the Ki – broadly, a measure of affinity in units of concentration, obtained from inhibition or displacement – in [4] is 0.3 nM; in assay [5], 0.8 nM; in [6], 0.016 nM; with rat NK1 receptor (rat) [7], 0.28 nM.
In assay [8], “Tyr-D-Ala-Gly-pFPhe-O-3′,5′(CF3)2-Bzl (NP62) (peptide)” yielded a GPI SP-antagonist Ke of 51.8 nM. The substance also had an MVD δ-agonist IC50 in assay [1] of 184 nM.
For “Tyr-D-Ala-Trp-O-3′,5′(CF3)2-Bzl (NP43) (peptide)”, the GPI SP-antagonist Ke in assay [8] was 49.4 nM. The substance also had a GPI µ-agonist IC50 in assay [9] of 3.3 % at 1 µM. In addition, in assay [1], the MVD δ-agonist IC50 is 5.5 % at 1 µM.
For the substance “Tyr-D-Ala-Trp-O-3′,5′(CF3)2-Bzl (peptide)”, the GTP EC50 in assay [2] amounted to 90.9 nM; in assay [3] it was 168 nM. For the same substance, the inhibition constant Ki in assay [4] amounted to 178 nM; in assay [5] it was 100 nM; in assay [6], 0.004 nM; in the assay with rat NK1 receptor (rat) [7] it was 2.94 nM.
Regarding “Tyr-Gly-Trp-O-3′,5′(CF3)2-Bzl (NP42) (peptide)”, in [9], the GPI µ-agonist IC50 amounted to 2.6 % at 1 µM.
For Tyr-Gly-Trp-O-3′,5′(CF3)2-Bzl (peptide), the inhibitory constant (Ki) in assay [6] is 0.003 nM; with rat NK1 receptor (rat) [7] it was 0.36 nM.
In turn, “TyrDAlaGlyPheMetCLeuLeuTrpOBn(CF3)2 (TY021) (peptide)” had a GTP binding hDOR EC50 in assay [2] of 0.26 nM. The GTP binding hDOR Emax in assay [2] came to 41.1%. This substance had a GTP binding rMOR EC50 in [3] of 53.8 nM. Also, the GTP binding rMOR Emax in assay [3] came out at 51.4%. The inhibitory constant (Ki) came out at 112 nM in assay [10], 5 nM in [11], 0.066 nM in assay [12] and 7.75 nM with rat NK1 receptor (rat) [13].
“Tyr[DCysGlyPheDCys]ProLeuTrpNHBn(CF3)2 (TY037) (peptide)”: the GTP binding hDOR EC50 in assay [2] was 98.2 nM. The substance further had a GTP binding hDOR Emax in [2] of 26%. Moreover, the GTP binding rMOR EC50 in assay [3] turned out to be 52.9 nM. The GTP binding rMOR Emax in [3] amounted to 8%. Further, the figures for the Ki (in assay [10]; in [11]; in the assay with rat NK1 receptor (rat) [13]) were 51.5 nM, 7.8 nM and 45.5 nM, respectively.
The substance “[3H]-[D-Ala2,NMePhe4,Gly5-ol]enkephalin (peptide)” had a [35S]GTP-γ-S binding LogEC50 in assay [14] of -7.44. In assay [3], this substance registered a [35S]GTP-γ-S binding EC50 of 37 nM, a [35S]GTP-γ-S binding Emax of 150%, a [35S]GTP-γ-S binding LogEC50 of -7.4 and a [35S]GTPγS binding EC50 of 37 nM. Further, in assay [3], the [35S]GTPγS binding Emax was determined as 150% and the [35S]GTPγS binding LogEC50 was -7.4. Also, the Kd (commonly the concentration at which binding is half-saturated) in [15] is 0.5 nM.
In [2], “[3H]-c[D-Pen2,D-Pen5]enkephalin (peptide)” had a [35S]GTP-γ-S binding EC50 of 1.6 nM, a [35S]GTP-γ-S binding Emax of 69%, a [35S]GTP-γ-S binding LogEC50 of -8.8 and a [35S]GTPγS binding EC50 of 1.6 nM. In assay [2], the [35S]GTPγS binding Emax is 69% and the [35S]GTPγS binding LogEC50 is -8.8. For the same substance, the Kd in assay [16] turned out to be 0.45 nM.
In assay [17], c[D-Pen2,D-Pen5]enkephalin (peptide) displayed an equilibrium dissociation constant (Kd) of 0.45 nM.
